These results are taken from the supplement of paper PMC7877785.

The data set in a line: self-splicing fitness, log relative to wild type (ln ratio); higher = more splicing; Tetrahymena group I intron in knt gene, E. coli kanamycin selection, DiMSum; sequences stand for … in CUCUCU…GGAGGGAAAAGUUAUCAGGCAUGCACCUGGUAGCUAGUCUUUAAACCAAUAGAUUGCAUCGGUUUAAAAGGCAAGACCGUCAAAUUGCGGGAAAGGGGUCAACAGCCGUUCAGUACCAAGUCUCAGGGGAAACUUUGAGAUGGCCUUGCAAAGGGUAUGGUAAUAAGCUGACGGACAUGGUCCUAACCACGCAGCCAAGUCCUAAGUCAACAGAUCUUCUGUUGAUAUGGAUGCAGUUCACAGACUAAAUGUCGGUCGGGGAAGAUGUAUUCUUCUCAUAAGAUAUAGUCGGACCUCUCCUUAAUGGGAGCUAGCGGAUGAAGUGAUGCAACACUGGAGCCGCUGGGAACUAAUUUGUAUGCGAAAGUAUAUUGAUUAGUUUUGGAGUACUCGUGGUCG
The essentials:
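Library with all eight P1ex-region intron nucleotides randomised, intron inside the knt kanamycin-resistance gene on pET-22b(+), in E. coli BL21(DE3). Cells grew overnight at 37°C or 30°C on LB agar with or without 25 μg/mL kanamycin (plus 100 μg/mL carbenicillin, 50 μM IPTG, 0.2% rhamnose), in six replicate transformations. Pooled colonies were amplicon-sequenced on Illumina HiSeq 2500. DiMSum fitness is the error-weighted combination of wild-type-normalised replicate fold changes, kanamycin versus none.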

± gives the uncertainty stated by the source.

Consider CCAUAGCAAUAUUACGGGGA, for which the “self-splicing fitness (ln)” value is -2.97 ± 0.18 (30 °C) and -2.68 ± 0.22 (37 °C).
CUUUAGCAAUAUUACGUCUG: the “self-splicing fitness (ln)” value runs as follows: (30 °C) -0.534 ± 0.094; (37 °C) -0.218 ± 0.12.
On the same counts, the results for AAAUAGCAAUAUUACGUCUU are 0.225 ± 0.074 and 0.263 ± 0.092.
For CGGAAGCAAUAUUACGGCGU, the “self-splicing fitness (ln)” value is -1.96 ± 0.16 (30 °C) and -1.04 ± 0.22 (37 °C).
In the same order, the values of AAAGAGCAAUAUUACGUCUC are -3.18 ± 0.29 and -1.47 ± 0.18.
Turning to AUUGAGCAAUAUUACGUGCG, the “self-splicing fitness (ln)” value is, setting by setting: (30 °C) -3.83 ± 0.24; (37 °C) -2.02 ± 0.16.
As to GACUAGCAAUAUUACGCCGC, the “self-splicing fitness (ln)” value is -3.31 ± 0.21 (30 °C) and -1.65 ± 0.2 (37 °C).
Regarding GAGGAGCAAUAUUACGCUAA, the “self-splicing fitness (ln)” value (30 °C) was -1.86 ± 0.32.
As for CGCUAGCAAUAUUACGUGUA, the “self-splicing fitness (ln)” value was -3.54 ± 0.27 (30 °C) and -1.53 ± 0.13 (37 °C).
Consider UCGGAGCAAUAUUACGCUAG, for which the “self-splicing fitness (ln)” value is, setting by setting: (30 °C) -1.87 ± 0.21; (37 °C) -2.38 ± 0.27.
As to UAAGAGCAAUAUUACGAUGU, the “self-splicing fitness (ln)” value was -4.13 ± 0.26 (30 °C) and -1.82 ± 0.2 (37 °C).
In the same order, the values of ACUAAGCAAUAUUACGUCGG are -1.99 ± 0.068 and -1.04 ± 0.087.
In the same order, the values of GAAUAGCAAUAUUACGCUCU are -1.58 ± 0.12 and -1.4 ± 0.14.
On the same counts, the results for CAUGAGCAAUAUUACGGGUC are -2.75 ± 0.25 and -2.75 ± 0.27.
Consider AACCAGCAAUAUUACGCGGU, for which the “self-splicing fitness (ln)” value (30 °C) is -4.38 ± 0.19 and the “self-splicing fitness (ln)” value (37 °C) is -2.43 ± 0.15.
With GAUAAGCAAUAUUACGGGCG, the “self-splicing fitness (ln)” value was -1.41 ± 0.11 (30 °C) and -0.837 ± 0.13 (37 °C).
Turning to GUGUAGCAAUAUUACGCGAU, the “self-splicing fitness (ln)” value was -3.21 ± 0.26 (30 °C) and -1.96 ± 0.26 (37 °C).
On the same counts, the results for UUAGAGCAAUAUUACGACGG are 0.111 ± 0.12 and -7.81e-05 ± 0.19.
On to UAUUAGCAAUAUUACGGAUA, for which, for the setting “37 °C”, the “self-splicing fitness (ln)” value was -0.897 ± 0.46.
In the case of CAACAGCAAUAUUACGAACC, the “self-splicing fitness (ln)” value (30 °C) was -2.27 ± 0.25 and the “self-splicing fitness (ln)” value (37 °C) was -1.62 ± 0.22.
Regarding GUACAGCAAUAUUACGCCGC, the “self-splicing fitness (ln)” value (30 °C) was -3.01 ± 0.24 and the “self-splicing fitness (ln)” value (37 °C) is -2.46 ± 0.45.
CGUUAGCAAUAUUACGACGG: the “self-splicing fitness (ln)” value runs as follows: (30 °C) 0.168 ± 0.13; (37 °C) -0.377 ± 0.12.
As for GGACAGCAAUAUUACGACGG, the “self-splicing fitness (ln)” value was -2.69 ± 0.28 (30 °C) and -2.16 ± 0.36 (37 °C).
On the same counts, the results for GGCUAGCAAUAUUACGGACG are 0.655 ± 0.093 and 0.211 ± 0.11.
Take UUAGAGCAAUAUUACGGCCU: the “self-splicing fitness (ln)” value (30 °C) is -4.22 ± 0.39.
For CAUCAGCAAUAUUACGUGAU, the “self-splicing fitness (ln)” value is, setting by setting: (30 °C) -2.78 ± 0.078; (37 °C) -0.987 ± 0.086.
On the same counts, the results for AACAAGCAAUAUUACGCGAU are -3.61 ± 0.17 and -1.57 ± 0.12.
In the same order, the values of AGCCAGCAAUAUUACGGCGA are -1.33 ± 0.095 and -0.342 ± 0.11.
In the case of UUUGAGCAAUAUUACGCCCU, the “self-splicing fitness (ln)” value by setting is: (30 °C) -1.25 ± 0.41; (37 °C) -1.96 ± 0.41.
Regarding GUCUAGCAAUAUUACGUCGC, the “self-splicing fitness (ln)” value reads like this: (30 °C) -0.459 ± 0.2; (37 °C) 0.215 ± 0.19.
In the same order, the values of AGCUAGCAAUAUUACGCAAU are -1.79 ± 0.19 and -1.77 ± 0.18.
On the same counts, the results for CACCAGCAAUAUUACGUUUC are -4.36 ± 0.19 and -2.58 ± 0.22.
Regarding CAGGAGCAAUAUUACGAUGA, for the setting “30 °C”, the “self-splicing fitness (ln)” value is -1.76 ± 0.41.
As to CUAUAGCAAUAUUACGAUAU, the “self-splicing fitness (ln)” value is, setting by setting: (30 °C) -2.53 ± 0.21; (37 °C) -2.45 ± 0.45.
Regarding UACUAGCAAUAUUACGUUAC, the “self-splicing fitness (ln)” value is, setting by setting: (30 °C) -3.86 ± 0.27; (37 °C) -2.44 ± 0.3.
On to ACACAGCAAUAUUACGGUAA, for which the “self-splicing fitness (ln)” value is -3.67 ± 0.21 (30 °C) and -1.18 ± 0.1 (37 °C).
In the case of GAAAAGCAAUAUUACGGACU, the “self-splicing fitness (ln)” value by setting is: (30 °C) 0.147 ± 0.069; (37 °C) 0.272 ± 0.087.
On the same counts, the results for UGGAAGCAAUAUUACGCCGU are -2.99 ± 0.48 and -1.87 ± 0.44.
UAGAAGCAAUAUUACGGGGC: the “self-splicing fitness (ln)” value (30 °C) is -3.58 ± 0.39 and the “self-splicing fitness (ln)” value (37 °C) was -1.6 ± 0.21.
For the sequence AUGAAGCAAUAUUACGCGAC, the “self-splicing fitness (ln)” value by setting is: (30 °C) -2.1 ± 0.15; (37 °C) -1.96 ± 0.27.
As to UAGAAGCAAUAUUACGGUUC, the “self-splicing fitness (ln)” value is -3.98 ± 0.25 (30 °C) and -2.31 ± 0.19 (37 °C).
In the same order, the values of AACAAGCAAUAUUACGUUGU are -2.17 ± 0.074 and -2.39 ± 0.13.
Consider CACGAGCAAUAUUACGAGGA, for which the “self-splicing fitness (ln)” value (30 °C) is -2.27 ± 0.15 and the “self-splicing fitness (ln)” value (37 °C) was -2.68 ± 0.16.
On the same counts, the results for GGAGAGCAAUAUUACGUGGG are -3.07 ± 0.44 and -2.28 ± 0.33.
On the same counts, the results for GACGAGCAAUAUUACGGCGU are -3.7 ± 0.32 and -1.9 ± 0.26.
Turning to UGAGAGCAAUAUUACGAUGU, the “self-splicing fitness (ln)” value (30 °C) was -3.27 ± 0.25.
Regarding GAGUAGCAAUAUUACGUCGC, the “self-splicing fitness (ln)” value runs as follows: (30 °C) -1.31 ± 0.22; (37 °C) -1.42 ± 0.26.
On the same counts, the results for CGUAAGCAAUAUUACGAGUG are -2.51 ± 0.13 and -0.853 ± 0.1.
In the same order, the values of CUGCAGCAAUAUUACGUCAU are -2.86 ± 0.14 and -2.06 ± 0.13.
On the same counts, the results for GUAUAGCAAUAUUACGAGUA are -1.18 ± 0.19 and -1.77 ± 0.22.
In the case of CAACAGCAAUAUUACGGUCA, the “self-splicing fitness (ln)” value was -1.16 ± 0.066 (30 °C) and -0.339 ± 0.069 (37 °C).
On to CCUGAGCAAUAUUACGCAUA, for which the “self-splicing fitness (ln)” value is -3.03 ± 0.32 (30 °C) and -2.83 ± 0.47 (37 °C).
On the same counts, the results for GCCUAGCAAUAUUACGAGCA are -2.26 ± 0.33 and -0.418 ± 0.17.
In the same order, the values of CAUCAGCAAUAUUACGAGAU are -3.84 ± 0.18 and -3.71 ± 0.21.
In the case of ACGUAGCAAUAUUACGGCGC, the “self-splicing fitness (ln)” value reads like this: (30 °C) -1.11 ± 0.083; (37 °C) -0.695 ± 0.098.
With AUUAAGCAAUAUUACGUUUG, the “self-splicing fitness (ln)” value (30 °C) is -3.11 ± 0.15 and the “self-splicing fitness (ln)” value (37 °C) is -1.56 ± 0.16.
In the same order, the values of GAUGAGCAAUAUUACGUAUU are -3.83 ± 0.34 and -3.78 ± 0.36.
On to AAGUAGCAAUAUUACGCUAA, for which the “self-splicing fitness (ln)” value by setting is: (30 °C) -1.81 ± 0.14; (37 °C) -0.343 ± 0.15.
On the same counts, the results for GGCCAGCAAUAUUACGUCUU are -0.247 ± 0.081 and -0.523 ± 0.082.
Consider GUAGAGCAAUAUUACGCGCU, for which the “self-splicing fitness (ln)” value was -2.69 ± 0.32 (30 °C) and -2.85 ± 0.32 (37 °C).
In the same order, the values of UAGCAGCAAUAUUACGUGAG are -0.937 ± 0.035 and -0.228 ± 0.056.
In the same order, the values of AGGUAGCAAUAUUACGAGCC are -0.991 ± 0.021 and -0.862 ± 0.037.
For the sequence CAUAAGCAAUAUUACGCCAA, the “self-splicing fitness (ln)” value was -2.33 ± 0.17 (30 °C) and -2.69 ± 0.32 (37 °C).
With GUCUAGCAAUAUUACGCACC, the “self-splicing fitness (ln)” value reads like this: (30 °C) -1.81 ± 0.11; (37 °C) -0.328 ± 0.14.
On to CUUGAGCAAUAUUACGUAAC, for which, under “30 °C”, the “self-splicing fitness (ln)” value was -1.67 ± 0.38.
As to UUGUAGCAAUAUUACGGUGU, the “self-splicing fitness (ln)” value runs as follows: (30 °C) -2.41 ± 0.42; (37 °C) -2.3 ± 0.26.
On to CCUCAGCAAUAUUACGCCAC, for which the “self-splicing fitness (ln)” value was -3.18 ± 0.36 (30 °C) and -2.12 ± 0.41 (37 °C).
Consider UGACAGCAAUAUUACGGAGA, for which the “self-splicing fitness (ln)” value was -3.83 ± 0.29 (30 °C) and -1.98 ± 0.15 (37 °C).
On to GCCAAGCAAUAUUACGCCAC, for which the “self-splicing fitness (ln)” value (37 °C) was -1.25 ± 0.27.
Regarding CGGAAGCAAUAUUACGUUAU, the “self-splicing fitness (ln)” value runs as follows: (30 °C) -3.02 ± 0.21; (37 °C) -2.3 ± 0.28.
On the same counts, the results for CAAUAGCAAUAUUACGUCUA are -2.78 ± 0.19 and -2.52 ± 0.21.
On the same counts, the results for UGUGAGCAAUAUUACGACGG are -1.3 ± 0.34 and -0.759 ± 0.28.
On to UGGAAGCAAUAUUACGCAUG, for which the “self-splicing fitness (ln)” value was -1.02 ± 0.096 (30 °C) and -0.486 ± 0.12 (37 °C).
With UUGAAGCAAUAUUACGAUCC, the “self-splicing fitness (ln)” value (37 °C) was -1.38 ± 0.38.
As for GUGGAGCAAUAUUACGUCCG, the “self-splicing fitness (ln)” value is -3.12 ± 0.33 (30 °C) and -1.01 ± 0.33 (37 °C).
For the sequence CAAAAGCAAUAUUACGAGUU, the “self-splicing fitness (ln)” value (30 °C) was -3.02 ± 0.15 and the “self-splicing fitness (ln)” value (37 °C) is -2.46 ± 0.16.
In the same order, the values of GUGUAGCAAUAUUACGAGGU are -2.33 ± 0.44 and -1.61 ± 0.49.
